Tested on: SerRS-Avi-biotin (human cytosolic seryl-tRNA synthetase) (Homo sapiens)
Test: SPR

WT tRNASer
Kd: 3.3 nM
